According to the nanobody polyreactivity screen of Harvey et al. (2022):

Experiment: yeast display, Sf9 membrane polyspecificity reagent, FACS + sequencing; frameworks hold sequencing errors
Procedure, shortened: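 Galactose-induced (36–48 hours) yeast carrying a synthetic nanobody display library were exposed to 10% biotinylated, detergent-solubilized Sf9 membrane reagent at 4 °C for 1 hour. FACS followed streptavidin microbead enrichment, using low and high (top ~1%) gates for expression (anti-HA) and reagent binding (streptavidin). Colony PCR, MiSeq 2 × 250 sequencing and CDR-length filtering followed. Labels for polyreactivity reflect the gate of origin.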

Sequence | polyreactivity (PSR sort gate)
QVQLVESGGGLVQAGGSLRLSCAASGRTIWYYAMGWYRQAPGKERELVAAITYRGGSTYYADSVKGRFTISRDNVKNTVYLQMNSLKPEDTAVYFCAKENYYGGGFDYWGQGTQVTVSS | high polyreactivity
QVQLVESGGGLVQAGGSLRLSCAASGRLFVYNAMGWYRQAPGKERELVAAISWRGGSTYYADSVKGRFTISRDNAKNTVYLQMYSLKPEDTAVYDCAAQRTARQFDYWGQGTQVTVSS | high polyreactivity
QVQLVESGGGLVHAGGSLRLSCAASGGTFGHYTMGWYRQAPGKERELVAAISGSGGTTYYADSVKGRFTISRDNAKNTVYLQMNSLKPEDTAVYYCAAYSGAYRKWLYDYWGQGTQVTVSS | high polyreactivity
QVQLVESGGGVVQAGGSLRVSCAASGRIFYGNAMGWYRQAPGKERELVAVISSGGSTYYADSVKGRFTISRDNAKNTVYFQMNSLKPEDTAVYYCAAQVRKYKDGSFRYHYWGQGTQVNVSS | high polyreactivity
QVQLVESCGGLVQAGGSLRLSCSASGSTFVINAMGWYRQAPGKERELVAAISSGDNTNYADSVKGRFTISRDNAKNTVYLQMNSLKPEETAVYYCAALPAYLDYGARRSMDYWGQGTQVTVSS | low polyreactivity
QFQLVESGGGLVQAGGSLRLSCAASGSTFTQNTMGWYRQAPGKERELVAAISRRGGGTYYADSVKGRFTISRDNAKNTVYLQMNSLKPEDTAVYYCNAPYILTQQGGRRYDYWGQGTQVTVSS | high polyreactivity
QVQLVESGGGLVQAGGSLRLSCAASGSTFHWYTMGWYRPAPGKESELVAAITSGTSTYYADSVKGRFTISRDNSKITVYLQMNSLKPEDTAVYYCNTEGVWSVYGLYDYWGQGTQVTVSS | low polyreactivity
QVQLVESGGGLVQAGGSLRLSCAASGITFPGNVMGWYRQAPGKERELVAAISTSGGSTYYADSVKGRFTISRDNAKNTVYLQMNSLKPEDTAVYYCARQYIRSSYGYWGQGTQVTVSS | low polyreactivity
QVQLVESGGGLVQAGGSLRLTCAASGSTFGLNAMGWYRQAPAKERELVAAITSRGTRTYYADSVKGRFTISRDNAKNTVYLQMNSLKPEDTAVYYCGKDSGATRYGEYDYWGQGTQVTVSS | low polyreactivity
QVQLVESGGGLVQAGGSLLLSSAASGSTLVYYTMGRYIPAPGKERELVAGITGSGGSTYYADSVKGRFTISRDNAKNTVYLQMNILIPEDTAVYYCAKRGFRSYHYIRGVYYWGQGTQVTVSS | low polyreactivity
QVQLVESGGGLVQAGGRLRLSCAASGSIFRWYAMGLYRQAPGKERELVAAITSGGSTYYADSVKGRFTISRDNAKNCVYLQMNSLKPEDTAVYYCNAKTYYPPFGYWGQGTQVTVSS | low polyreactivity
QVQLVESGGGLVQAGGSLRLSCAASGLTFPANVMGWYRQAPGKERELVAAISRSGGTTYYADSVKGRFTISRDNAKNTVYLQMNILKPEDTAVYYCAAYQVSYFGGSMDYWGQGTQVTVSS | high polyreactivity
QVQLVESGGGLVQAGCSLRLSCAASGYIFYPYAMGWYRQAPGKERELVAAISGSGSGTYYADSVKGRFTISRDNAKNTVYLQMNSLKPEDTADYYCAKYVYDNVWMDYWGQGTQVTVSS | high polyreactivity
QVQLVESGGGLVQAGRSLRLSCAASGSILGGNAMGWYRQAPGKDRELVAAITFSGGGTYYADSVKGRFTISRDNAKNTVDFQMNSLKPEDTAVYYCAADKVGYTYEFDYWGQGTQVTVSS | low polyreactivity
QVQLVESGGGLVQAGGSLRLSCAASGRIFYPYAMGWYRQAPGKERELVAAISLSGGSTLYADSVKGRFTISRDNAKNTVYLQMNSLKPEDTAVYYCAADQRTRYQTRQYYYWGQGTQVTVSS | low polyreactivity
QVQLVESGGGLVQAGGSLRLSCAASVIIFRLYGMGWYRQAPGKEREFVATITWRGGRTNYADSVKGRFTISRDNAKNTVYLQMNSLKPQDTAVYYCAKVVRYARSNEYDSWGQGTQVTVSS | low polyreactivity
QVQLVESGGGLVQAGGSLRLSCAASGSTFGAYAMGWYRQAPGKEREFVAAISGGGDGTYADSVKGRFTISRDNAKNTVYLQMNSLKPEDTAVYYCAAEDVPYDREDYWGQGTQVTVSS | low polyreactivity
